These results are taken from patent US20220195023A1.

Numbering of substitutions follows the chain as printed.

To fix the notation:
B1: AB-007060 (antibody, V domains shown)
VH: QMQLVESGGGVVQPGRSLRLSCTASGFTFSTYAMHWVRQSPGQGLQWVAVISYHSTNKYYEDSVRGRFTISRDNSKNTLYLQMNSLRAEDTAVYYCARDGYSSSYFDFWGQGTLVTVSS
VL: DIQMTQSPSTLSASVGDRVAITCRASQSISRWLAWYQQQPGKAPKLLMSGASVLESGVPSRFSGSGSGTEFTLTISSLQPDDFATYYCQHYNSYFVTFGQGTKVEIK
B2: AB-007048 (antibody, V domains shown)
VH: B1 VH with A33S, Y105F
VL: B1 VL
B3: AB-007058 (antibody, V domains shown)
VH: B1 VH with S103T, Y105F
VL: B1 VL
B4: AB-007066 (antibody, V domains shown)
VH: B1 VH with Y105F
VL: B1 VL with G50Q
B5: AB-007069 (antibody, V domains shown)
VH: B1 VH with Y105F
VL: B1 VL with G50V
B6: AB-007064 (antibody, V domains shown)
VH: B1 VH with Y105F
VL: B1 VL with S49T
B7: AB-007067 (antibody, V domains shown)
VH: B1 VH with Y105F
VL: B1 VL with G50S
B8: AB-007055 (antibody, V domains shown)
VH: B1 VH with S102T, Y105F
VL: B1 VL
B9: AB-007050 (antibody, V domains shown)
VH: B1 VH with Y53Q, Y105F
VL: B1 VL

The first test has as its target (NANP)6 (Plasmodium falciparum). Kind of test: BLI, target on sensor. On the technique in general: Biolayer interferometry detects binding as a change in optical thickness at a sensor tip.
A word on the Kd: it is the free concentration of one partner at which half of the binding sites on the other are occupied at equilibrium, for simple one-to-one binding. The low end stands for higher affinity, the high end for lower affinity. With B1, the Kd was 0.898 nM.

Molecule B2 showed a Kd of 1.46 nM.

For the molecule B3, the Kd is 1.14 nM.

In turn, B4 came in with a dissociation constant Kd of 0.315 nM.

Molecule B5 gave a Kd of 1.33 nM.

Molecule B6 displayed a Kd of 0.434 nM.

In turn, B7 returned a Kd of 0.647 nM.

As to B8, the equilibrium dissociation constant (Kd) amounted to 1.61 nM.

Molecule B9 came in with a Kd of 0.856 nM.

A further test concerns the target (NPNA)3 (Plasmodium falciparum). Kind of test: BLI, target on sensor.
On to B1, for which the Kd amounted to 1.14 nM.

On to B2, for which the dissociation constant (Kd) worked out at 3.33 nM.

Molecule B3 gave a Kd of 1.3 nM.

For the molecule B4, the equilibrium dissociation constant (Kd) turned out to be 3.58 nM.

B5 gave a Kd of 1.43 nM.

Consider B6, for which the dissociation constant Kd stood at 0.453 nM.

Molecule B7 gave an equilibrium dissociation constant (Kd) of 2.02 nM.

Consider B8, for which the Kd is 3.62 nM.

B9 came in with a Kd of 1.05 nM.

A further test concerns the target (NVDP)3(NANP)2 (Plasmodium falciparum). Kind of test: BLI, target on sensor.
Turning to B1, the dissociation constant Kd was 45.2 nM.

Take B2: the Kd was 34.6 nM.

For the molecule B3, the dissociation constant Kd was determined as 42.2 nM.

B4: the Kd was 22.4 nM.

In turn, B5 showed an equilibrium dissociation constant (Kd) of 28.7 nM.

As to B6, the Kd stood at 33.7 nM.

The molecule B7 yielded an equilibrium dissociation constant (Kd) of 34 nM.

Turning to B9, the dissociation constant (Kd) came to 33.4 nM.

A further test concerns the target NANPNVDP (Plasmodium falciparum). Kind of test: BLI, target on sensor.
In turn, B5 had a Kd of 26.6 nM.

B6: the equilibrium dissociation constant (Kd) is 36.7 nM.

For another test, the target named is … (Plasmodium falciparum). Kind of test: BLI, target on sensor.
Take B1: the dissociation constant Kd was found to be 43.2 nM.

The molecule B2 registered a Kd of 28.6 nM.

Take B3: the Kd stood at 46.3 nM.

As to B4, the Kd amounted to 26.6 nM.

B5 yielded a dissociation constant (Kd) of 27.5 nM.

B6: the dissociation constant (Kd) stood at 30.9 nM.

The molecule B7 registered a dissociation constant (Kd) of 36.1 nM.

Molecule B9 yielded a Kd of 37.4 nM.

Another test addresses (NANP)6 (Plasmodium falciparum). Briefly: SPR, antibody on chip. (In general: SPR reads the build-up and loss of mass on a sensor chip optically.)
Regarding B1, the Kd stood at 1.21 nM.

B2 came in with a Kd of 1 nM.

Regarding B3, the Kd was 0.137 nM.

Take B4: the Kd was 0.979 nM.

B5 displayed a Kd of 1.85 nM.

On to B6, for which the Kd worked out at 0.192 nM.

With B7, the Kd is 0.244 nM.

Turning to B8, the Kd came out at 0.403 nM.

In the case of B9, the dissociation constant (Kd) turned out to be 0.54 nM.

Another test has as its target (NPNA)3 (Plasmodium falciparum). Briefly: SPR, antibody on chip.
B1 displayed a Kd of 212 nM.

In turn, B2 yielded an equilibrium dissociation constant (Kd) of 1550 nM.

On to B3, for which the dissociation constant (Kd) amounted to 339 nM.

B4: the equilibrium dissociation constant (Kd) stood at 357 nM.

B5: the dissociation constant (Kd) was determined as 204 nM.

On to B6, for which the Kd is 152 nM.

The molecule B7 came in with a Kd of 207 nM.

Turning to B8, the dissociation constant Kd turned out to be 1470 nM.

Turning to B9, the dissociation constant Kd came to 271 nM.
